We go through one substance from doi:10.1101/2022.01.07.475460.

The assay deals with Recombinant Xenopus laevis Chromosomal Passenger Complex (INCENP, Aurora B 33-368, Survivin-B, Borealin/Dasra-A) (Xenopus laevis) (UniProt Q6GPL3). The assay can be described thus: partitioning into condensates.
Chain of UniProt Q6GPL3 (Q6GPL3 whole entry, looked up, tested part not stated, one chain of several): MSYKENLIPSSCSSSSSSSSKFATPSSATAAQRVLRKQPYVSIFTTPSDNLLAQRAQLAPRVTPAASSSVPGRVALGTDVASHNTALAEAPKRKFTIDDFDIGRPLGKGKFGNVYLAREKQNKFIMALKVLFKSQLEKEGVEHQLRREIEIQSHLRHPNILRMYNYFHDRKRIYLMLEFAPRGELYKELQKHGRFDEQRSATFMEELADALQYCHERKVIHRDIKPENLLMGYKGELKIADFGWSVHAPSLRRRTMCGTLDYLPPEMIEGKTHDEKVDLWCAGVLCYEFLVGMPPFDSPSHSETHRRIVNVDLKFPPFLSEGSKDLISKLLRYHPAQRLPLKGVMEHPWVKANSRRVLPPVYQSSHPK

Consider “α/β-tubulin dimers (from UniProt Q6B856 1-445) (complex)”, for which the enrichment in condensates (partition coefficient) amounted to 5 fold.
